Test results from IntAct's records for PubMed 24590075.

B1: Zinc finger MYND domain-containing protein 11 (Mus musculus), Q8R5C8 (parent)
chain: MARLTKRRQADTKAIQHLWAAIEIIRNQKQIANIDRITKYMSRVHGMHPKETTRQLSLAVKDGLIVETLTVGCKGSKAGIEQEGYWLPGDEIDWETETHDWYCFECHLPGEVLICDLCFRVYHSKCLSDEFRLRDSSSHWQCPVCRSIKKKHSNKQEMGTYLRFIVSRMKERAIDLNKKGKDSKHPMYRRLVHSAVDVPTIQEKVNEGKYRSYEEFKADAQLLLHNTVIFYGADSEQADIARMLYKDTCHELDELQLCKNCFYLSNARPDNWFCYPCIPNHELVWAKMKGFGFWPAKVMQKEDNQVDVRFFGHHHQRAWIPSENIQDITVNVHRLHVKRSMGWKKACDELELHQRFLREGRFWKSKNEDRGEEEAESSISSTSNEQLKVTQEPRAKKGRRNQSVEPKKEEPEPETEAVSSSQEIPTMPQPIERVSVSTQTKKLSASSPRMLHRSTQTTSDGVCQSMCHDKYTKIFNDFKDRMKSDHKRETERVVREALEKLRSEMEEEKRQAVNKAVASLQGDMDRKGKQLKEKCKEEFVEEIKKLAAQHKQLISQTKKKQWCYNCEEEAMYHCCWNTSYCSIKCQQEHWHAEHKRTCRRKR

Legend:
h33_human H3-3A, P84243 [1] = variants of: B1; conditions: with h33_human H3-3A
h33_human H3-3A, P84243 [2] = variants of: B1; conditions: with h33_human H3-3A; remark: listed apart in the source

Variant	effect of a mutation on the interaction (h33_human H3-3A, P84243 [1])	effect of a mutation on the interaction (h33_human H3-3A, P84243 [2])
E251A	disrupting interaction strength	decreasing interaction strength
R168A	disrupting interaction strength	decreasing interaction strength
N266A	disrupting interaction strength	decreasing interaction strength

Second part, the variant after the results:

effect of a mutation on the interaction (h33_human H3-3A, P84243 [1])	effect of a mutation on the interaction (h33_human H3-3A, P84243 [2])	Variant
disrupting interaction strength	–	F291A
disrupting interaction strength	decreasing interaction strength	F310A
disrupting interaction strength	decreasing interaction strength	W294A
–	decreasing interaction strength	D307N
